Data taken from patent WO2008121160A2 (dated 2008).

Biological target: T1, CD5-His-GST (human, UniProt P06127 25-372)
T1 construct: Expressed in 293T cells, purified by nickel chromatography; also called Recombinant CD5; Tagged CD5 antigen; not shown: C-terminal Factor Xa site; 6X His tag; GST protein
T1 sequence: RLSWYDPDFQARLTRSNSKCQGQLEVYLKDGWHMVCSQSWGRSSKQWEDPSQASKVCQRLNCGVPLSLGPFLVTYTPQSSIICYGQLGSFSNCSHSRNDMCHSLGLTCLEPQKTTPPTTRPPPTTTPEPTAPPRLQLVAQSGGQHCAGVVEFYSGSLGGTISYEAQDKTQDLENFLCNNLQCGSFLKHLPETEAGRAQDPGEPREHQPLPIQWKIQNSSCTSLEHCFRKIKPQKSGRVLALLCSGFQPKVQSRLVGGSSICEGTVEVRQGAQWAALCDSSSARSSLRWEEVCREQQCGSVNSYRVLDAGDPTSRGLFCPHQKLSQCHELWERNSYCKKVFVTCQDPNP
Experiment: Biacore (SPR), global Langmuir fits

B1: 5D7_H0L0_IgG1_WT (antibody, V domains shown)
VH: QVTLKESGPGILKPSQTLSLTCSFSGFSLSTSGMGVGWIRQPSGKGLEWLAHIWWDDDVYYNPSLKNQLTISKDASRDQVFLKITNLDTADTATYYCVRRRATGTGFDYWGQGTTLTVSS
VL: NIVMTQSHKFMSTSVGDRVSIACKASQDVGTAVAWYQQKPGQSPKLLIYWTSTRHTGVPDRFTGSGSGTDFTLTITNVQSEDLADYFCHQYNSYNTFGSGTRLELKR
notes: also called chimeric 5D7; H0L0 5D7
- Kd: ~1.5 nM
